Experimental data taken from patent US9629804B2, “Lipid formulations for delivery of messenger RNA” (Shire Human Genetic Therapies, Inc., priority 2013, dated 2017).

Test system: BHK-21 cells
Experiment: hSMN-1 western blot of BHK-21 cells transfected with hSMN mRNA
Assay type: cell-based
Settings: one microgram mRNA, Lipofectamine 2000, 16-18 hours post-transfection
Experimental: Standard western blot procedures were followed employing various antibodies that recognizes hSMN protein, such as: (A) anti-SMN 4F11 antibody at 1:1,000 dilution; (B) Pierce PA5-27309a-SMN antibody at 1:1,000 dilution; and (C) LSBio C138149a-SMN antibody at 1:1,000 dilution. For each experiment one microgram of hSMN mRNA was transfected into ˜1×10^6 BHK-21 cells using Lipofectamine 2000. Cells were treated with OptiMem and harvested 16-18 hours post-transfection. Cell lysates were harvested, processed and loaded on to an 8-16% Tris Glycine gel. The gel was transferred using a PVDF membrane and treated with the respective primary antibody. Goat anti-mouse HRP antibody was used as the secondary antibody at 1:10,000 dilution for 45 minutes at room temperature followed by washing and development.

B1: hSMN mRNA: codon-optimized human Survival of Motor Neuron-1 messenger RNA (SEQ ID NO: 4), in vitro transcribed, Cap 1, poly(A) tail (nucleic acid)
chain: GGACAGAUCGCCUGGAGACGCCAUCCACGCUGUUUUGACCUCCAUAGAAGACACCGGGACCGAUCCAGCCUCCGCGGCCGGGAACGGUGCAUUGGAACGCGGAUUCCCCGUGCCAAGAGUGACUCACCGUCCUUGACACGAUGGCCAUGAGCAGCGGAGGCAGCGGCGGAGGAGUGCCCGAGCAGGAGGACAGCGUGCUGUUCAGGAGAGGCACCGGCCAGAGCGAUGACAGCGAUAUCUGGGACGAUACCGCUCUGAUCAAGGCCUACGACAAGGCCGUGGCCAGCUUCAAGCACGCCCUGAAAAACGGCGACAUCUGCGAGACCAGCGGCAAGCCCAAGACAACCCCCAAGAGAAAGCCCGCCAAGAAGAAUAAGAGCCAGAAAAAGAACACCGCCGCCAGCCUGCAGCAGUGGAAGGUGGGCGACAAGUGCAGCGCCAUCUGGAGCGAGGACGGCUGCAUCUACCCCGCCACCAUCGCCAGCAUCGACUUCAAGAGAGAGACCUGCGUGGUCGUGUACACCGGCUACGGCAACAGAGAGGAGCAGAACCUGAGCGACCUGCUGAGCCCCAUUUGUGAGGUGGCCAAUAACAUCGAACAGAACGCCCAGGAGAACGAGAAUGAAAGCCAGGUGAGCACCGACGAGAGCGAGAACAGCAGAUCUCCUGGCAACAAGAGCGACAACAUCAAGCCUAAGUCUGCCCCUUGGAACAGCUUCCUGCCCCCUCCUCCACCCAUGCCCGGACCCAGACUGGGACCCGGAAAACCUGGCCUGAAGUUCAACGGACCACCUCCCCCUCCACCUCCUCCCCCACCUCAUCUCCUGAGCUGCUGGCUGCCACCCUUCCCCAGCGGACCCCCUAUCAUCCCACCACCCCCUCCCAUCUGCCCCGACAGCCUGGACGACGCCGAUGCCCUGGGCAGCAUGCUGAUCAGCUGGUACAUGAGCGGCUACCACACAGGAUACUACAUGGGCUUCAGACAGAACCAGAAGGAGGGCAGAUGCUCCCACUCCCUGAACUGACGGGUGGCAUCCCUGUGACCCCUCCCCAGUGCCUCUCCUGGCCCUGGAAGUUGCCACUCCAGUGCCCACCAGCCUUGUCCUAAUAAAAUUAAGUUGCAUCAAAGCU
modifications: Cap 1, poly(A) tail
B1 was tested, and the “western blot signal for hSMN-1 protein in transfected BHK-21 cells” value was “strong signal for hSMN-1”.
